Results from a protein production outcome set (Wang et al. 2014).

assay: label from the status in PepcDB records
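Note: failed if final PepcDB status was selected cloned or expressed and not failed if soluble or beyond.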

Protein production, failed:
MKRTKKAFVLVLSLSMLASISPQTVLASGGNTDRYEEVHGTQAIVKDAEVHVYTTKNGGTVQLTGSNGIETTFTQGIGYREYKATPADGWRWKGWTYEQLYQGEDLGNRTDYGWGRRYSFSNDGSDWKSPYDGIGQTISVNRLLTTGETVGNKITYNLYADFNPTINATADTGGTIEDSGITEVEYGTNKQYTVTADTGKDIASVTVDGNSVLAETKKDSFTYTFENVTEPHTIHATFTDEIHTVSYEFVSGTAGEALPEEVSNLCPSSSTYTYGTEVTPTQPTSTSVKVSDGVWTFKGYDKENQTVTSDVKFTGTWTFAKNAVTINHIPTITAGDKTITVGDSFDPKKDVTASDKEDGSLTDRIEVINNTVNTSKVGTYTVTYKVTDKDGASVTKSITVTVKEKDKEEQTTVPTKPDNGNSTSTDTKKDASKTGQTVKTGDTSNVLLWSTIAILSLAGVVTVLFIKRRKSHS
MKRWTTLLIVICMLGITIPAMGAMSISKMRQNTRFLTDRMAYELKLTPRQYNDVYEVNYDFINNVRYLMDDVVRGYDYALERYYDFLDVRNDDLRWILSSAQYRRFMRAEHFYRPIYAHENKWHFRIYLVYNNVNFFYYGKPHHYASYCGGHYRTHFNNVSYYKTHYRDHYRHDVYDGHYRIRHDRMTYDMHRRRDFNIAVRPPQKEHHRPATPPQTRPNRPQIHPDRPSGDHRRPSVPQARPDRPKKDQNNKHDGRPSRRGQNSQVDKDRHENRRITPSGRDVRRGNGKKEKDSDRSGGSNKSNSKERTAVRMRTV
MKSADGLLHVAFTPSKATGKVLASELPEKVGKRSSVLYPASLKAGNDIGVPVQSVDTVLLQQALSAPVLSVASPSAVRAWLHLIQNEEQWSNYVACIGETTASAARRLGLKNVYYPEKPGLEGWVESIMEALGAHADSSNPSSRN
MKSAELKYLDFEDFTKLIALAKEKINPIYSSSFMIYIAAMTGMRFSELLGLTWDNVDFEKGQIYVKRTWDIYKNNFAPTKNDQSVRFLAIDSSTMQVMINYKEQQEKLLKRLEIEPEHPFVFYNIKNGLITNNSLNKQLRNMCKKLGFKKIITCHGLRHTHASTMLYKGINILYVSKRLGHSSLNVTMSVYSHILKLEHHHHHH
MKSFDGHNDLLARLWLSEHPDPVGMFLKGQLPGHLDFARCQQAQFAGGLFAIFVPPFDYVKNNHPYKLRKSAQAGFDTQDIHHIVFTQLDYIKQIASRSDRRIQICLSVEDIQFCLQQDIMAVVIHLEGAEVLDSEFGVLEQLHARGLRSIGPLWNLPNQFGHGLQASFPHSPDTGLGLTDQGKALIQLCSEKRIMIDVSHMNEKAFWDTAKISELPLIATHSNVHQLCPQPRNLTDAQLEAIQASQGCVGVNFDTAFLRPDGQRNAATSLDLILEHIEYLMHKLGEDQVAFGSDFDGGFISDHLKDVTGLIHLQQAFERRGYSQALQEKLCHQNWLSALQRVWHPAC
MKSHAEVVKTRHHEYSLVFPVIALVVLYIWGNSQDFIAILGINAVALAGILFSAFSVVRHADVLAHRLGEPYGSLILSLSVVILEVSLISALMATGDAGPDLMRDTLYSIIVIVTGGLVGFALLLGGRKFATQYVNLSGIKQYLMAIFPLAVIVLVFPSALPDGNFSVTQSLIVAAISAAMYGVFLLIQTRTHQSLFVYEHEDEGDGDDPHHGKPSAHSSLWHTGWLLVHLIAVIAVTKTNSMPLETLLTEMNAPTQFTGFLVALLILSPEGLGAIRAVLKNQVQRAMNLFFGSVLATISLTVPTVTIIAMITGRTLNFGLDMPHIVVMLSVLVLCHITFSTGRTNVLSGSAHLALFAAYLITITL
MKSHQLLKAPFQHGFLFSRPLVMYCFKTCHDSAWKHYIRFLKYRHEKLYEEALSEIDNAIKVCNSIAFRYFLLSEKLTVLGYMGKHEEGIKLYSHLRGRMRNVSPNLRSIFIGNLLNYCSMYLHNAFECLGRIKPEAHHLEKSSYAFILIGKARYMARTGNVKEAIESYEKALKILQEIPHPSGIIACLNDMAWYTKEKDPEKAKDMAEEALYWNGYFFDAPRFYALDTLFEVQRTTSDPAIVETARLIEIASEGLKDSASDLLKKDQRLFLRLNNSLYRNTKSLQRFLRRNTTSIKHLSEITGVARNRLSDILNGKTQKIRGETLRKIAKAFEKSNILSFPPPLLSEWVKLRIEENFSAALREIKTKRLEERQILFLSTYTALIDRKFLSRKERLKKAYTLLEDIESFADFMAKDHRTMEFVVSMVKAHPFVEGRKEAVKRALARMKRKRLERFVLRYIEMKESDRKLLDRFLRNYGRYDGVRFGIRLKGPEVVREFAKKYSLKVQPLFAAFWCEEDGRVRRRLERVLKHMVLN
MKSKWIFIQWFKYNNIRMKDESTNKFGSLNLAVLVLSVYVLGALIVDTTIKLPEETSRLLNYIDLAICIFFFVEFCIRLYHADSKMKFMRWGWIDLVSSIPMINFLRFGRVFRLIRLFRILRAFRTTKEFVTYVFRIKAQGAFTSATILAILLIIFSSIAILQVENASTSNITTAEDAIWWSYVTITTVGYGDKYPVTTEGRIIAMFLMTAGVGLFGTFTAYIASLFVSDNKKEETETKE
MKSLYRSRMANHSKHGRPFTLSLPNRSQCVKIVATFAAVGLLATGGIISRSFYTSSTQAEPTTRVTAYSATDAEASRGNAREALGGDTAYVTVKINGKSRVVPGTNFTNVKSVLEAGNITLEPEDTVSPSLTTKVDEKTVITVSRAGASVEVSDSSIAFNVVKKETSSLPKGQEKVETEGEEGVMESTNLVTRSGDTVISSNMISSYVKKAPVDKVVLVGTGSTSTSSSSSSSSSTASVGTTVPAGEMQQWAHDYLISNGYTEADFTATVYIISHESGWSVSATNPSSGAYGLPQALPGSKMVSAGADWATNYQTQLKWFWGYCASRYGSIQGAYSYWLAHKCY
MKSQNPSKRNLPGVIIAYFLIYVVWGSTYFFIGVALKDFSPFLLGALRFTTAGLILLGICYLRGEQIFKKSLVKRSAVSGIVLLFVDMAVVMLAQRYLTSSLVAIIASSTALWILLLDVPMWRTNFRNPLTIAGGGIGFGGVVMLYAEQLNAEWLHPQSERGILLLVFGCISWALGTLYAKYRSSREEEVNAFAGSAWQMLFASVMFWICAVVNGDVREADLSTVSVTSWFSLLYLISFGSLLAYSAYVWLLKVRPAAEVGTHAYVNPFIAVLLGVSFGNEQVTFVQLSGLLVILLGVMLISRKRNKMKSTAISR
MKSRTSELAAGIFVIIFGVALFFLAMKVSGLAGTNLSDPYTMTAQFDNVNGLKPRAKVTMSGVTIGRVDAITLDPVTRLATVTFDLDGKLTTFNAKQLKTVEQNALEELHYSSDYKSAEPAKQKVMEQQLIDNMKSITSIDEDAYIMVSTNGLLGEKYLKIVPGGGLNYLKRGDAITNTQGTMDLEDLISKFITGGAGKSSDNSTGTAAQSSSSEDKEPSFTELEHHHHHH
MKSSTMTSDYYKQTQIDQTLRLREVLKTLPPFAKDYFRAMEPKSSAKTRINYAYDIRVFFHFLLENNPIYKNYTMDQFRVQDLERIEPVDIEEYMEYLKVYKREDNEMITNGERGLKRKMSALRSFYSYYFKHQYIATNPTLLEHHHHHH
MKSSVVSAWDMLWRSHREAKRLLLFAMPVRAGKDAGLKINSEQTMKEEKPPSYKTPQKIGLLLGPALFFAVLLFFFPEGLSYEGRMVLATTLWVAVWWITEAVPIPAASLLPIVLLPLTGALEGAAVTSSYGDPIVFLFLGGFLIALAMERWNLHKRIALNIISVVGTSTSRIVLGFMAATGFLSMWVSNTAAVMMMLPIGTAIIHQVSAVIKSERKDLAAEEAKFSKALIFSIGYAGTIGGLGTLIGTPPNIILAANIKKLYGVEVSFGGWMAFAVPVVVILLVAVWLYLTKVAHPIKMKELPGGKELILEEKRKLGKMSFEETMVLLVFGFAAFMWVTRTFLWDDKIPGIDDTMIAIFAASLLFLIPSLNKGGRVLDWSVSKDLPWGILLLFGGGLALATGFKETGLAEWIGGRLTVLDGFNFVVIVIISTALVLFLTEITSNTATATMILPVLASLALALNVHPYALMVPAAMAANCAFMLPVGTPPNAIIFASGKLKISEMVRTGFVINIFTLILIVGAVFYILPHLWGVDLTVFPDNLKSN
MKSVFHLWRSHMRHLNDMALFVEVARARSFRKAAEALGMPNSTLSRRVSELEKAIGLRLLHRTTRKIELTEAGQLYYERSKRIVDEARLAHEQLGAMLNQPSGVLRVSLPVNLATFYLTPIIGEFARHYPGITFEFDLTPRRVDLVAEPFDVAIRIGKLEDSGLITRLIGRHSRHLYASPGYIEASGEPATPAELAEHECIGMLRSPIWSLHQGINKVDVAVRGRFTLNSVGMIRALAVNHQGIALLPEKIVAEDVAFGRLRRILPEWQGSAVSIFAVTETRLIPAKTQRFIEFLSSRLMEA
MKSVIFTEEKNLQRQNPLQKSEQQRRNFEMPSPPTTTSLSVTQTINGSHSFTIKGYSLAKGIGIGKHIASDTFTVGGYQWAIYFYPDGKNPEDNSAYVSVFIALASDGTDVRALFELSLLDQSGKGKHKVHSHFDRALESGPYTLKYRGSMWGYKRFFRRLMLETSDFLKDDCLKINCTVGVVVSEIDCPRLHSIHVPASDIGSHFGMLLENEDGSDITFNVSGEKFRAHRLVLAARSPVFESEFLDVTGEEDRDIEVTDMEPKVFKALLHYIYKDALIEDAESSSSSGSSVGPSASDTLAAKLLGAADKYKLPRLSLMCESVLCKDISVDSVANILALADRYNASALKSVCLKFAAENLIAVMRSDGFDYLREHCPSLQSELLKTVAGCEEELSGGGGKTRSVWGQFSDGGAETNGRQAQTWGDINGGAERSQSVWVEVVNANGSGRNNNDNNNSDDPMAELED
MKSWPRPCSWACANPETKGRAYRTMSSSPTISPASDTFAAMTDDHRLAEFIREQASATRVVIQARKRLSGGAIQENWLLDLLIEGGPWAGVRRWVLRSDALSALPASLDREQEFAVLQVVYQAGVKVPRPLWLCRDVRVHGRVFFLMEYVPGSAAGRALSTGAGPQGRAQLATQLGANLARLHQVRPPCATLCFLSVPDSSPALATIDAYRRYLDTLADAYPVLEWGLRWCELHAPRSSTLCLLHRDYRTGNYLASEEGLEAVLDWEFTGWGDPCEDLGWFTARCWRFTRPDLEAGGIGQLEDFLRGYHEVSSLCIERSRLHYWQVMATLRWAVIALQQGQRHLSGEEPSLELALTARLLPELELDILHMTGAEAP
MKSWQIELLYDGECPLCLREVNFLRSKDQGRGLVNFVDIAQPDYNPLDHGGVSFEDAMARIHGVKADGSVVKNVAVFREVYEILGIGWLYAPTRWPIIGPLVDRIYDFWADLRLSWTGRSSLAEILAQREKGMCATDGCALPVTSGVEGKP
MKTDWSHYLSVEMESTISNELSILCGAEVAFLGYSCSGKPYTFGSPSFQAVAERFLNREASSSLQRSVMNAHQQAKIQELCKVYNRMVEEAKTEEAKVKKAAALAETMPVDEDAWWKVDPKEVEDHEEAKKIMEKCEGLYEKLCNEAAARIQRGDAENNNK

Protein production, not failed:
MKSQWECFLQNLGVWEGSFSNFSPEGTLLNDTSSRLCLEGLNNNQTVRLTLSRSGKDDVIREFRSVGGGLLFFENGSFSEGLIQLGPFSEFGGELAFVHENRRLRLVQLFDRNGHLNGLTLIREHLAGTPVAERPLLQINDLLGEWRGQAVTIYRDLRPPDIYSTTLKIQLDDAGRLMQSTSFGERTITSTATIKGSIVLFDQDPEKQVQVLLLPDGASATSPLKVQLRQPLFLEAGWLIQSDLRQRMIRSYNDKGEWVSLTLVTEERV
MKSYTKHTHTNRLASESSPYLLQHAHNPVEWFPWGEEALQKAKAEDKPILVSIGYSACHWCHVMEHECFEKEEVAAVMNDLFINIKIDREERPDLDQIYMDAVSAMGLRGGWPLNVFLTPDAKPFYGGTYFPQDHWLNLLGQISNAYLNHREDILKSAESFTESLNQSDVF
MKTFEVMIQTDSKGYLDAKFGGNAPKAFLNSNGLPTYSPKISWQKVEGAQSYALELIDHDAQKVCGMPFVHWVVGNIAHNVLEENASMMDKRIVQGVNSLTQGFIRSPLNESEKQRSNLNNSVYIGPMPPNGDHHYLIQVYALDIPKLALKAPFFLGDLHDKMRNHIIAIGRKEFLYKQFVRK
